Assay results: publication PMC8986801, “Activation of the essential kinase PDK1 by phosphoinositide-driven trans-autophosphorylation” (Nature Communications, 2022)

Target: the molecule itself
Assay: SEC-MALS; 50 μl of purified protein injected on Superdex 200 10/300; 50 mM Tris pH 7.5, 100 mM NaCl, 2% glycerol, 1 mM TCEP, 2 mM MgCl2, ±1 mM ATP; self-association (monomer or dimer)

B1: PDK1^SKD-PIF S241A (PIFtide fused through a (GS)4 linker to the C-terminus of the short kinase domain, S241A) (other)
chain: QPRKKRPEDFKFGKILGEGSFSTVVLARELATSREYAIKILEKRHIIKENKVPYVTRERDVMSRLDHPFFVKLYFTFQDDEKLYFGLSYAKNGELLKYIRKIGSFDETCTRFYTAEIVSALEYLHGKGIIHRDLKPENILLNEDMHIQITDFGTAKVLSPESKQARANAFVGTAQYVSPELLTEKSACKSSDLWALGCIIYQLVAGLPPFRAGNEYLIFQKIIKLEYDFPEKFFPKARDLVEKLLVLDATKRLGCEEMEGYGPLKAHPFFESVTWENLHQQTPPKLTGSGSGSGSQEMFRDFDYIADWC
notes: 3-phosphoinositide-dependent kinase 1 (PDK1), human, residues 73-359 (short kinase domain); minimal poly Gly-Ser (GS)4 linker; PIFtide, a peptide derived from the hydrophobic motif of PRK2; also called C-terminal PIFtide SKD fusion S241A; dimer; source: baculovirus-infected Sf9 insect cells, purified (glutathione sepharose, 3C cleavage, HiTrap Q, gel filtration); not shown: GST, N-terminal, …
stoichiometry N: 2
